Assay results published in paper PMC6063399, “Thiol-maleimide poly(ethylene glycol) crosslinking of L-asparaginase subunits at recombinant cysteine residues introduced by mutagenesis” (PLoS ONE, 2018).

Target: the molecule itself
Assay: SEC; Superdex 200 10/300 GL in crosslinking buffer (0.1 M potassium phosphate, 5 mM EDTA, 0.150 M NaCl, pH 6.5-7.0), 0.75 ml/min; mutant reduced with TCEP before loading; fractions followed by A280 and catalytic activity; starting solution of low purity

B1: L-asparaginase mutant A38C-T263C (enzyme, E. coli, UniProt P00805 23-348, looked up)
chain: LPNITILATGGTIAGGGDSATKSNYTVGKVGVENLVNCVPQLKDIANVKGEQVVNIGSQDMNDNVWLTLAKKINTDCDKTDGFVITHGTDTMEETAYFLDLTVKCDKPVVMVGAMRPSTSMSADGPFNLYNAVVTAADKASANRGVLVVMNDTVLDGRDVTKTNTTDVATFKSVNYGPLGYIHNGKIDYQRTPARKHTSDTPFDVSKLNELPKVGIVYNYANASDLPAKALVDAGYDGIVSAGVGNGNLYKSVFDTLATAAKCGTAVVRSSRVPTGATTQDAEVDDAKYGFVASGTLNPQKARVLLQLALTQTKDPQQIQQIFNQY
notes: L-asparaginase II of E. coli (ansB), expressed with its natural signal peptide, which was excised; In the cross-linking experiments the two introduced cysteines were reacted with Bi-MAL-PEG (2000 or 5000 g/mol) after reduction with TCEP; also called mutant L-asparaginase; precursor mutant
- binding result: binds
